The record followed here is patent US20200255543A1 (ROCKEFELLER UNIVERSITY, published 2020).

Experiment [1] concerns the target T1, recombinant human MERTK (human, UniProt Q12866 21-505, limits assumed).
T1 construct: Analyte in solution in biolayer interferometry; also called hMer
T1 sequence: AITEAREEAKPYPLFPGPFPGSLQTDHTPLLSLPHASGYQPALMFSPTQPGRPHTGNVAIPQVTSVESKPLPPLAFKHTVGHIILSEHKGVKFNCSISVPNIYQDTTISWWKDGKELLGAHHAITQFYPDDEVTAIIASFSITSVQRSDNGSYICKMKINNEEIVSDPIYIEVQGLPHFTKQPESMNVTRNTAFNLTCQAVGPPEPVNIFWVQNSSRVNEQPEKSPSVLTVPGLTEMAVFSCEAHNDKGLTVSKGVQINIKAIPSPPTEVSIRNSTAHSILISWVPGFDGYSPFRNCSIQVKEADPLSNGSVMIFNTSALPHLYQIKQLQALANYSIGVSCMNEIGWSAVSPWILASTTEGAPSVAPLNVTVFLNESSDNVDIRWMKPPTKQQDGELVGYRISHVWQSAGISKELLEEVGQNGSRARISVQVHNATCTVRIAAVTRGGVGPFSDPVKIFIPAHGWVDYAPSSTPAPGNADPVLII
Description: biolayer interferometry, global fit; human MERTK. The protocol: (§1) FIG. 7: M19 binds to human MERTK with high affinity. A diagram showing antibody binding kinetics for M19 (Mer-M19) against human MERTK (hMer) using biolayer interferometry. Purified M19 was loaded on an AMQ sensor at a concentration of 1 microgram/mL to test binding against analytes in solution. All analytes were prepared at 5 nM with a 2-fold dilution series for a total of 7 concentrations. Kinetic fits were calculated using a 1:1 model, with Local fits for each concentration as well as an overall global fit.
(In BLI a coated tip is dipped into the sample, and binding shifts an interference pattern.)

Experiment [2] deals with T2, recombinant mouse MERTK (mouse, UniProt Q60805 23-496, limits assumed).
T2 construct: Analyte in solution in biolayer interferometry; also called msMer; murine MERTK
T2 sequence (looked up): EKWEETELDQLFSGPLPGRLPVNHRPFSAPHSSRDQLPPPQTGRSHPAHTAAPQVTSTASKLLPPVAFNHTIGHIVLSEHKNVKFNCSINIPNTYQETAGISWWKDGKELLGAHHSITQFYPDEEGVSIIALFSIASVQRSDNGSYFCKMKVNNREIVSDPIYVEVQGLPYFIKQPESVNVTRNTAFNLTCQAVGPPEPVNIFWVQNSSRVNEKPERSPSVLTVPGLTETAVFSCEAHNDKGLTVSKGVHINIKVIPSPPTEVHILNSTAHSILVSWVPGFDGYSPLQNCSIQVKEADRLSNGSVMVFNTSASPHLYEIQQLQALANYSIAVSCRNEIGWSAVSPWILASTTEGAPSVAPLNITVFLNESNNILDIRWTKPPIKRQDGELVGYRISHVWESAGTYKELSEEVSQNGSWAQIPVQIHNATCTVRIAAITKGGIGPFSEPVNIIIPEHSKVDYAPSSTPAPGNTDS
Description: biolayer interferometry, global fit; mouse MERTK. The protocol:
(§2) FIG. 8: M19 binds to murine MERTK with high affinity. A diagram showing antibody binding kinetics for M19 (Mer-M19) against murine MERTK (msMer) using biolayer interferometry. Purified M19 was loaded on an AMQ sensor at a concentration of 1 microgram/mL to test binding against analytes in solution. All analytes were prepared at 5 nM with a 2-fold dilution series for a total of 7 concentrations. Kinetic fits were calculated using a 1:1 model, with Local fits for each concentration as well as an overall Global fit.

In experiment [3] the target is T1, recombinant human MERTK. Description: biolayer interferometry, M19 loaded on AMQ sensor at 1 ug/mL, hMer in solution at 5 nM, local 1:1 fit. The method, then: as §1
(§3) To characterize the binding affinity of M19 antibody against recombinant human and mouse MERTK, biomolecular interaction analysis was performed using biolayer interferometry (FIG. 7 and FIG. 8). Binding was observed between M19 and both mouse and human MERTK.

In experiment [4] the target is T1, recombinant human MERTK. The experiment is described as follows: biolayer interferometry, M19 loaded on AMQ sensor, hMer analyte from 5 nM in 2-fold dilutions, 1:1 model, global fit. The method, then: as §1
For experiment [5], the target named is T2, recombinant mouse MERTK. The experiment is described as follows: biolayer interferometry, M19 loaded on AMQ sensor at 1 ug/mL, msMer in solution at 2.5 nM, local 1:1 fit. The method, then: as §2, §3
In experiment [6] the target is T1, recombinant human MERTK. Description: biolayer interferometry, M19 loaded on AMQ sensor at 1 ug/mL, hMer in solution at 0.1563 nM, local 1:1 fit. The method, then:
as §1, §3

Experiment [7] has as its target T2, recombinant mouse MERTK. Description: biolayer interferometry, M19 loaded on AMQ sensor at 1 ug/mL, msMer in solution at 0.0781 nM, local 1:1 fit. The method, then:
as §2, §3

The target in experiment [8] is T2, recombinant mouse MERTK. Description: biolayer interferometry, M19 loaded on AMQ sensor at 1 ug/mL, msMer in solution at 0.1563 nM, local 1:1 fit. The protocol: as §2, §3
The target in experiment [9] is T2, recombinant mouse MERTK. Description: biolayer interferometry, M19 loaded on AMQ sensor at 1 ug/mL, msMer in solution at 0.3125 nM, local 1:1 fit. The method, then: as §2, §3
Experiment [10] concerns the target T1, recombinant human MERTK. The experiment is described as follows: biolayer interferometry, M19 loaded on AMQ sensor at 1 ug/mL, hMer in solution at 5 to 0.0781 nM, global 1:1 fit. The method, then: as §1, §3

B1: monoclonal antibody M19 (antibody, V domains shown)
VH: EVQLEESGPDLKKPGETVKISCKASNYTFTDYSMHWVKQAPGKGLKWVGWINTDTGEPTYADDFKGRFAFSLETSASTAYLQINNLKNEDTATYFCARWFGAMDYWGQGTSVTVSS
VL: DIVITQSHKFMSTSVGDRVSITCKASQDVTNVVAWYQQKPGQSPKLLIYSASYRYTGVPDRFTGSGSGTDFTFTISSVQAEDLAVYYCQQYYRTPRTFGGGTKLEIKR
notes: Mouse hybridoma monoclonal antibody; Hybridoma supernatant was used in the ELISA screen, purified antibody in biolayer interferometry; also called Mer-M19
Take B1: the Kd (commonly the constant that tells how readily two partners part at equilibrium) in experiment [1] is roughly 0.3 nM; in [2] it was roughly 0.3 nM; in experiment [3], 0.246 nM; in [4], 0.326 nM; in [5], 0.341 nM; in [6], 0.621 nM. Also, the Kd in [7] worked out at 0.0472 nM; in [8] it was 0.117 nM; in experiment [9], 0.115 nM. Further, the koff (commonly the rate constant with which the complex falls apart) in [3] stood at 0.000951 s⁻¹; in [5] it was 0.00159 s⁻¹; in experiment [6] it was 0.000949 s⁻¹; in experiment [7] it was 0.00108 s⁻¹; in [8], 0.00129 s⁻¹; in [9], 0.00106 s⁻¹. The koff in [10] worked out at 0.001 s⁻¹. In addition, the kon – broadly, the rate constant with which the complex forms – is 3.86e+06 M⁻¹ s⁻¹ in [3]; 4.66e+06 M⁻¹ s⁻¹ in [5]; 1.53e+06 M⁻¹ s⁻¹ in [6]; 2.29e+07 M⁻¹ s⁻¹ in experiment [7]; 1.1e+07 M⁻¹ s⁻¹ in experiment [8]; 9.23e+06 M⁻¹ s⁻¹ in [9]. Also, in experiment [10], the kon is 3.08e+06 M⁻¹ s⁻¹.
